Source: patent US20240228579A1 (Innovent, published 2024)
Read-outs that look alike come from different tables or passages of the source.

T1: Human CD32A/FCGR2A protein (167his) (human, UniProt P12318 34-218, limits assumed)
T1 construct: Bought, his-tagged; also called CD32A (H167); CD32A H167; not shown: his tag
T1 sequence (looked up): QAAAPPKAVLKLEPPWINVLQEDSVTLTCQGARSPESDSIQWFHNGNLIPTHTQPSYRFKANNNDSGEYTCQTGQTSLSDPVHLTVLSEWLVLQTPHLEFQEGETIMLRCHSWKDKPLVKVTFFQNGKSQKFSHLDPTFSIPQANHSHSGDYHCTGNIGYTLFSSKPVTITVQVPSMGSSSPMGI

T2: Human CD32A/FCGR2A protein (167Arg) (human, UniProt P12318 34-218, limits assumed)
T2 construct: Bought, his-tagged; also called CD32A (R167); CD32A R167; not shown: his tag
T2 sequence (looked up): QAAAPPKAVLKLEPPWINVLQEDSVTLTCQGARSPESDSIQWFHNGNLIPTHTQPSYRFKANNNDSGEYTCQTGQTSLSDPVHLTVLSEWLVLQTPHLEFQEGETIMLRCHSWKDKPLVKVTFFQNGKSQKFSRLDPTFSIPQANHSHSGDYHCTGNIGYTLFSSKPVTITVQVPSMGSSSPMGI

T3: Human CD32B/FCGR2B protein (human, UniProt P31994 43-217, limits assumed)
T3 construct: Bought, his-tagged; also called FcγRIIb; not shown: his tag
T3 sequence (looked up): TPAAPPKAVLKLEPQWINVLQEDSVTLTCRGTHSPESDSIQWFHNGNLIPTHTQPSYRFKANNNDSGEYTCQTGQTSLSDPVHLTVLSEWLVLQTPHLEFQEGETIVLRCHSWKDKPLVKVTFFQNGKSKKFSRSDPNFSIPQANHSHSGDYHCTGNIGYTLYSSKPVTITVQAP

T4: Claudin18.2 (cp0007, Genscript) (UniProt P56856-2 1-261, limits assumed)
T4 construct: Bought antigen used in BLI; also called Claudin18.2 antigen; the antigen
T4 sequence (looked up): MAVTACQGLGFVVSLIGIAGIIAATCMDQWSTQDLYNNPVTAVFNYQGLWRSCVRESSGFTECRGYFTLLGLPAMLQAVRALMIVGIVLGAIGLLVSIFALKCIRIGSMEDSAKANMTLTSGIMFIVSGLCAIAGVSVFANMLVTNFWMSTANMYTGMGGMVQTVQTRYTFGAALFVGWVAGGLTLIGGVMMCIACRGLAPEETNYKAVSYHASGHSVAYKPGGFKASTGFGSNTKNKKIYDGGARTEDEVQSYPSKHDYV


Key:
human C1q [1] = target: T5, human C1q (human, UniProt P02745 23-245; P02746 28-253; P02747 29-245); test: BLI (Octet), biotinylated antibody on SA sensor
T5 construct: Bought C1q (Complement Technology); also called C1q antigen
T5 sequence (P02745 23-245 limits assumed, chain 1 of 3): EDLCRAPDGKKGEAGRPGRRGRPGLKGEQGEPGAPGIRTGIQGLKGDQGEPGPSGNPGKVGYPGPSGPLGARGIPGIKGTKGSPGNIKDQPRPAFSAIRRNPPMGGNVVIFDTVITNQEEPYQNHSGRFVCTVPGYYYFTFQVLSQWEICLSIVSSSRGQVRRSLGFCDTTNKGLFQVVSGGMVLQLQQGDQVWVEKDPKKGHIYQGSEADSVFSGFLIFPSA
T5 sequence (P02746 28-253 limits assumed, chain 2 of 3): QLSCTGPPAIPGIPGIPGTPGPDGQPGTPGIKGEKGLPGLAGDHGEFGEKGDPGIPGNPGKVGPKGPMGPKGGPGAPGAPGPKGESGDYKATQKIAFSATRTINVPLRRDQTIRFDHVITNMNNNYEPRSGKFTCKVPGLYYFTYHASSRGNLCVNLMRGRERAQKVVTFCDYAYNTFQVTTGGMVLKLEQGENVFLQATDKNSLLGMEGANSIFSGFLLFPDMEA
T5 sequence (P02747 29-245 limits assumed, chain 3 of 3): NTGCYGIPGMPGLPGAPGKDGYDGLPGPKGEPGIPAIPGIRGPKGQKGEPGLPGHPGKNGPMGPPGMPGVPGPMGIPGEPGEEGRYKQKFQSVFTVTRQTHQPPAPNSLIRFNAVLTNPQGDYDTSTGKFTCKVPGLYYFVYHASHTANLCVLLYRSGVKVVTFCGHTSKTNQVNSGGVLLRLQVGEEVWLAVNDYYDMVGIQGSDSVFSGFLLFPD
Description: (§1) The antibody was diluted to approximately 100 nM, and C1q (Δ099, Complement Technology) was diluted to 40 nM.
(§2) Detection was conducted using Fortebio Octet Red96e, and the sensors were arranged according to the positions of the samples. […] After the experiment was completed, KD values were analyzed using ForteBio Octet analysis software, the coordinate axis data were derived, and Graphpad Prism 8 software was used for plotting.

[2] = target: T6, Human CD64/FCGR1A protein (human, UniProt P12314 16-288, limits assumed); test: SPR (Biacore T200)
T6 construct: Bought, his-tagged; also called FcγRI; not shown: his tag
T6 sequence (P12314 16-288 limits assumed): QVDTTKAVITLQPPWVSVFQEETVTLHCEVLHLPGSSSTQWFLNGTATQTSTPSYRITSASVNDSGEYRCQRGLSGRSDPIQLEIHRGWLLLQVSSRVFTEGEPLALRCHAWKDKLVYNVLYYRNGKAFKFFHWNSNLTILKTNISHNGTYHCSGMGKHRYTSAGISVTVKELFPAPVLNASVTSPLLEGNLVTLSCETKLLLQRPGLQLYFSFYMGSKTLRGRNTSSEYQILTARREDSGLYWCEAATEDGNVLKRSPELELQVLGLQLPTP

[3] = target: T7, Human FcγRIIIA/CD16A (F176) protein (human, UniProt P08637 17-208); test: SPR (Biacore T200);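 further: His-tagged Fc receptors captured on an anti-His antibody chip, Fc-variant antibodies flowed as analyte, 60 s association and 60 s dissociation, fitted by 1:1 or steady-state model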
T7 construct: Bought, his-tagged; not shown: his tag
T7 sequence (P08637 17-208 limits assumed): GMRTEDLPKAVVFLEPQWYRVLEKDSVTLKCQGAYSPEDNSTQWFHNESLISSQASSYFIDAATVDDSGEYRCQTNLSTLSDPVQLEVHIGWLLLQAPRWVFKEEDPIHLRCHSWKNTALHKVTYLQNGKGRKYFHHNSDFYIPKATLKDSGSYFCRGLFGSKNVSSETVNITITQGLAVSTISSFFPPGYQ

[4] = target: T8, Human FcγRIIIA/CD16A (V176) protein (human, UniProt P08637 17-208); test: SPR (Biacore T200);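 further: His-tagged Fc receptors captured on an anti-His antibody chip, Fc-variant antibodies flowed as analyte, 60 s association and 60 s dissociation, fitted by 1:1 or steady-state model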
T8 construct: Bought, his-tagged; not shown: his tag
T8 sequence (P08637 17-208 F176V limits assumed): as the sequence (P08637 17-208 limits assumed) above, with F160V counted along it

[5] = target: T9, Human FcγRIIIB/CD16B (NA1) (human, UniProt O75015 17-200, limits assumed); test: SPR (Biacore T200);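 further: His-tagged Fc receptors captured on an anti-His antibody chip, Fc-variant antibodies flowed as analyte, 60 s association and 60 s dissociation, fitted by 1:1 or steady-state model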
T9 construct: Bought, his-tagged; not shown: his tag
T9 sequence (O75015 other isoform, or with tags, fused parts or gaps limits assumed): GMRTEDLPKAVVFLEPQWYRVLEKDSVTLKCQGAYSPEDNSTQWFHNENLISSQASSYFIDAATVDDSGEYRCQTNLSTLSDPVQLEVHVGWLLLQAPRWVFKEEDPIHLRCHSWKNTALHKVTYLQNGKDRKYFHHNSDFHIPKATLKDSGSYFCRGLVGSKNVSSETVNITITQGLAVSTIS

[6] = target: T10, Human FcγRIIIB/CD16B (NA2) (human, UniProt O75015 17-200, limits assumed); test: SPR (Biacore T200);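 further: His-tagged Fc receptors captured on an anti-His antibody chip, Fc-variant antibodies flowed as analyte, 60 s association and 60 s dissociation, fitted by 1:1 or steady-state model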
T10 construct: Bought, his-tagged; not shown: his tag
T10 sequence (O75015 17-200 N65S limits assumed): as the sequence (O75015 other isoform, or with tags, fused parts or gaps limits assumed) above, with R20S, N49S, D66N, V90I counted along it

[7] = target: T1, Human CD32A/FCGR2A protein (167his); test: SPR (Biacore T200)
Excerpt: (§3) The specific procedures were as follows: Each of FcγR and FcRn proteins (for information of each Fc receptor, see Table 2 below) containing a histidine tag was captured to the chip surface to which anti-histidine antibodies were coupled, and the binding and dissociation between the proteins on the chip surface and antibodies in the mobile phase were detected to obtain affinity and kinetic constants.
(§4) Affinity assay: Each cycle included capture of the receptor, binding of a certain concentration of the antibody carrying the Fc region mutation of the present application, and regeneration of the chip. […] In each cycle, the antibody mutant solution flowed over the chip surface at a flow rate of 30 μL/min, with the binding time of 60 s and the dissociation time of 60 s. […] The obtained data were analyzed using Biacore T200 analysis software (version number 3.1) and using an analysis 1:1 binding or homeostasis analysis model to obtain the corresponding results.

[8] = target: T2, Human CD32A/FCGR2A protein (167Arg); test: SPR (Biacore T200)
Excerpt: as §3, §4

[9] = target: T3, Human CD32B/FCGR2B protein; test: SPR (Biacore T200)
Excerpt: as §3, §4

[10] = target: T4, Claudin18.2 (cp0007, Genscript); test: BLI (Octet), antibody on AHC sensor, Claudin18.2 100 nM
Description: The antibody and Claudin18.2 (cp0007, Genscript) were diluted to 100 nM, respectively.
Detection was conducted using Fortebio Octet Red96e, and the sensors were arranged according to the positions of the samples. […] After the experiment was completed, KD values were analyzed using ForteBio Octet analysis software.

human C1q [11] = target: T5, human C1q; test: BLI (Octet), biotinylated antibody on SA sensor, C1q 40 nM
Description: as §1, §2

[12] = target: T6, Human CD64/FCGR1A protein; test: SPR (Biacore T200), his-tagged receptor captured, antibody in flow
Excerpt: as §3, §4

[13] = target: T11, Human FcRn/FCGRT & B2M heterodimeric protein (human, UniProt P55899 24-297; P61769 21-119); test: SPR (Biacore T200), FcRn captured, antibody in flow, pH 6.0; pH 6.0
T11 construct: Bought heterodimer with His and Strep II tags
Excerpt: as §3, §4

[14] = target: T6, Human CD64/FCGR1A protein; test: SPR (Biacore T200), his-tagged CD64 captured on anti-His CM5 chip, antibody as analyte, pH 7.4, 1:1 binding fit
Excerpt: as §3, §4

human C1q [15] = target: T5, human C1q; test: BLI (Octet), biotinylated antibody on SA sensor; remark: listed apart in the source
Description: as §1, §2

| binding result (human C1q [1]) | fold reduction of binding against Fcmut-01 [2] [times] | binding result [3] | binding result [4] | binding result [5] | binding result [6] | binding result [7] | binding result [8] | binding result [9] | Kd [10] [nM] | Response [10] [nm] | koff [10] [s⁻¹] | kon [10] [M⁻¹ s⁻¹] | Response (human C1q [11]) [nm] | Kd [12] [nM] | Kd [13] [nM] | koff [14] [s⁻¹] | kon [14] [M⁻¹ s⁻¹] | Binder | other results |
| --- | --- | --- | --- | --- | --- | --- | --- | --- | --- | --- | --- | --- | --- | --- | --- | --- | --- | --- | --- |
| no binding (tested: C1q 40 nM) | – | – | – | – | – | – | – | – | – | – | – | – | – | – | – | – | – | Fcmut-20 (antibody, human IgG4 S228P, kappa, IgG4-mut: deletion of 329 and 330 (EU index)) heavy: QVQLVQSGAEVKKPGSSVKVSCKASGYSFSSYNIHWVRQAPGQGLEWMGYIAPFQGDSRYNQKFKGRVTITADKSTSTAYMELSSLRSEDTAVYYCARLNRGNSLDYWGQGTLVTVSSASTKGPSVFPLAPCSRSTSESTAALGCLVKDYFPEPVTVSWNSGALTSGVHTFPAVLQSSGLYSLSSVVTVPSSSLGTKTYTCNVDHKPSNTKVDKRVESKYGPPCPPCPAPEFLGGPSVFLFPPKPKDTLMISRTPEVTCVVVDVSQEDPEVQFNWYVDGVEVHNAKTKPREEQFNSTYRVVSVLTVLHQDWLNGKEYKCKVSNKGLSIEKTISKAKGQPREPQVYTLPPSQEEMTKNQVSLTCLVKGFYPSDIAVEWESNGQPENNYKTTPPVLDSDGSFFLYSRLTVDKSRWQEGNVFSCSVMHEALHNHYTQKSLSLSLGK light: not shown | – |
| no binding (tested: C1q 40 nM) | – | – | – | – | – | – | – | – | – | – | – | – | – | – | – | – | – | Fcmut-24 (antibody, human IgG4 S228P, kappa, F234A L235A, also called Fcmut-024) heavy: QVQLVQSGAEVKKPGSSVKVSCKASGYSFSSYNIHWVRQAPGQGLEWMGYIAPFQGDSRYNQKFKGRVTITADKSTSTAYMELSSLRSEDTAVYYCARLNRGNSLDYWGQGTLVTVSSASTKGPSVFPLAPCSRSTSESTAALGCLVKDYFPEPVTVSWNSGALTSGVHTFPAVLQSSGLYSLSSVVTVPSSSLGTKTYTCNVDHKPSNTKVDKRVESKYGPPCPPCPAPEAAGGPSVFLFPPKPKDTLMISRTPEVTCVVVDVSQEDPEVQFNWYVDGVEVHNAKTKPREEQFNSTYRVVSVLTVLHQDWLNGKEYKCKVSNKGLSIEKTISKAKGQPREPQVYTLPPSQEEMTKNQVSLTCLVKGFYPSDIAVEWESNGQPENNYKTTPPVLDSDGSFFLYSRLTVDKSRWQEGNVFSCSVMHEALHNHYTQKSLSLSLGK light: not shown | – |
| no binding (tested: C1q 40 nM) | – | – | – | – | – | – | – | – | – | – | – | – | – | – | – | – | – | Fcmut-22 (antibody, human IgG4 S228P, kappa, F234A L235A) heavy: QVQLVQSGAEVKKPGSSVKVSCKASGYSFSSYNIHWVRQAPGQGLEWMGYIAPFQGDSRYNQKFKGRVTITADKSTSTAYMELSSLRSEDTAVYYCARLNRGNSLDYWGQGTLVTVSSASTKGPSVFPLAPCSRSTSESTAALGCLVKDYFPEPVTVSWNSGALTSGVHTFPAVLQSSGLYSLSSVVTVPSSSLGTKTYTCNVDHKPSNTKVDKRVESKYGPPCPPCPAPEAAGGPSVFLFPPKPKDTLMISRTPEVTCVVVDVSQEDPEVQFNWYVDGVEVHNAKTKPREEQFNSTYRVVSVLTVLHQDWLNGKEYKCKVSNKGLSSIEKTISKAKGQPREPQVYTLPPSQEEMTKNQVSLTCLVKGFYPSDIAVEWESNGQPENNYKTTPPVLDSDGSFFLYSRLTVDKSRWQEGNVFSCSVMHEALHNHYTQKSLSLSLGK light: not shown | – |
| no binding (tested: C1q 40 nM) | – | – | – | – | – | – | – | – | – | – | – | – | – | – | – | – | – | Fcmut-23 (antibody, human IgG4 S228P, kappa, F234A L235A) heavy: QVQLVQSGAEVKKPGSSVKVSCKASGYSFSSYNIHWVRQAPGQGLEWMGYIAPFQGDSRYNQKFKGRVTITADKSTSTAYMELSSLRSEDTAVYYCARLNRGNSLDYWGQGTLVTVSSASTKGPSVFPLAPCSRSTSESTAALGCLVKDYFPEPVTVSWNSGALTSGVHTFPAVLQSSGLYSLSSVVTVPSSSLGTKTYTCNVDHKPSNTKVDKRVESKYGPPCPPCPAPEAAGGPSVFLFPPKPKDTLMISRTPEVTCVVVDVSQEDPEVQFNWYVDGVEVHNAKTKPREEQFNSTYRVVSVLTVLHQDWLNGKEYKCKVSNKGLGSIEKTISKAKGQPREPQVYTLPPSQEEMTKNQVSLTCLVKGFYPSDIAVEWESNGQPENNYKTTPPVLDSDGSFFLYSRLTVDKSRWQEGNVFSCSVMHEALHNHYTQKSLSLSLGK light: not shown | – |
| – | 14 | no binding (tested: 400 nM) | no binding (tested: 400 nM) | no binding (tested: 400 nM) | no binding (tested: 400 nM) | no binding (tested: 400 nM) | no binding (tested: 400 nM) | no binding (tested: 400 nM) | 2.83 | 0.146 | 0.0002 | 70700 | -0.0027 | 15 | 505 | 0.0141 | 938000 | Fcmut-04 (antibody, human IgG1, kappa, IgG1-mut of Fcmut-01: deletion of 329 and 330 (EU index)) heavy: QVQLVQSGAEVKKPGSSVKVSCKASGYSFSSYNIHWVRQAPGQGLEWMGYIAPFQGDSRYNQKFKGRVTITADKSTSTAYMELSSLRSEDTAVYYCARLNRGNSLDYWGQGTLVTVSSASTKGPSVFPLAPSSKSTSGGTAALGCLVKDYFPEPVTVSWNSGALTSGVHTFPAVLQSSGLYSLSSVVTVPSSSLGTQTYICNVNHKPSNTKVDKKVEPKSCDKTHTCPPCPAPELLGGPSVFLFPPKPKDTLMISRTPEVTCVVVDVSHEDPEVKFNWYVDGVEVHNAKTKPREEQYNSTYRVVSVLTVLHQDWLNGKEYKCKVSNKALPIEKTISKAKGQPREPQVYTLPPSREEMTKNQVSLTCLVKGFYPSDIAVEWESNGQPENNYKTTPPVLDSDGSFFLYSKLTVDKSRWQQGNVFSCSVMHEALHNHYTQKSLSLSPGK light: not shown | – |
| – | 8.7 | no binding (tested: 400 nM) | no binding (tested: 400 nM) | no binding (tested: 400 nM) | no binding (tested: 400 nM) | no binding (tested: 400 nM) | no binding (tested: 400 nM) | no binding (tested: 400 nM) | 2.73 | 0.138 | 0.0002 | 73200 | 0.0007 | 9.31 | 447 | 0.0136 | 1.46e+06 | Fcmut-02 (antibody, human IgG1, kappa, IgG1-mut of Fcmut-01: deletion of 329 (EU index); also called Fcmut-2) heavy: QVQLVQSGAEVKKPGSSVKVSCKASGYSFSSYNIHWVRQAPGQGLEWMGYIAPFQGDSRYNQKFKGRVTITADKSTSTAYMELSSLRSEDTAVYYCARLNRGNSLDYWGQGTLVTVSSASTKGPSVFPLAPSSKSTSGGTAALGCLVKDYFPEPVTVSWNSGALTSGVHTFPAVLQSSGLYSLSSVVTVPSSSLGTQTYICNVNHKPSNTKVDKKVEPKSCDKTHTCPPCPAPELLGGPSVFLFPPKPKDTLMISRTPEVTCVVVDVSHEDPEVKFNWYVDGVEVHNAKTKPREEQYNSTYRVVSVLTVLHQDWLNGKEYKCKVSNKALAPIEKTISKAKGQPREPQVYTLPPSREEMTKNQVSLTCLVKGFYPSDIAVEWESNGQPENNYKTTPPVLDSDGSFFLYSKLTVDKSRWQQGNVFSCSVMHEALHNHYTQKSLSLSPGK light: not shown | binding result (human C1q [15]): no binding (tested: C1q 40 nM) |
